The values below come from patent US20230034474A1 (AC IMMUNE, published 2023).

Substitutions are numbered along the chain they refer to. Read-outs that look alike come from different tables or passages of the source.

In assay [1] the target is T1, Abeta1-42 (human).
T1 construct: coated on plates in the direct ELISA, in solution as analyte in the sandwich ELISA; also called human Abeta 1-42; amyloid-beta 1-42
Nature of the assay: sandwich ELISA: ACI-31-25B1-Ab2 coated as capture, analyte Abeta1-42 titrated, biotinylated ACI-24-41F12-Ab3 as detection, streptavidin-HRP, O.D. 450 nm. On the technique in general: An ELISA detects its analyte on a solid surface through an enzyme-linked reagent.
Protocol: After washing 4-times with 300 μL of PBS containing 0.05% Tween20, the plate was incubated for 45 min at ambient temperature with 50 μL/well of streptavidin-HRP (R&D systems) diluted 1:200 in PBS containing 1% BSA and 0.05% Tween20. The plate was again washed 4-times with 300 μL of PBS containing 0.05% Tween20 before incubating at ambient temperature for 20 or 30 min with 50 or 100 μL/well of 3,3′,5,5′-tetramethylbenzidine (TMB) enzyme substrate (BD Bioscience). Reaction was stopped with a 1.2 M HCl (Sigma) solution. Finally, optical densities (O.D.) were read at 450 nm absorption wavelength using a Tecan Infinite plate reader.
Briefly, a Nunc MaxiSorp 96-well plate (Nunc) was coated for 18 h at 4° C. with 50 μL of capture antibody at 5 μg/mL, diluted in carbonate-bicarbonate buffer. The plate was then washed and blocked as described in the preceding paragraph.

Assay [2] deals with T2, Human Abeta1-42 biotinylated at the peptide C-terminus (human, biotin at the peptide C-terminus).
T2 construct: also called biotinylated Abeta1-42
Briefly: target capture ELISA: antibody held by anti-mouse Fc, biotinylated Abeta1-42 titrated in solution.
Protocol: (§1) Briefly, a Nunc MaxiSorp 96-well plate (Nunc) was coated for 18 h at 4° C. with 50 μL of 5 pg/mL goat anti-mouse IgG, Fc-gamma fragment specific antibody (Jackson Immune Research) diluted in carbonate-bicarbonate buffer. The plate was then washed 4-times with 300 μL of PBS containing 0.05% Tween20 (Millipore). To block non-specific binding to the plate, freshly prepared solution of PBS containing 0.05% Tween20 and 1% BSA, was added to each well (100 μL/well) and the plate was incubated for 1 h at 37° C. […] Subsequently, the plate was washed 4-times with 300 μL of PBS containing 0.05% Tween20. […] After washing 4-times with 300 μL of PBS containing 0.05% Tween20, the plate was incubated for 45 min at ambient temperature with 50 μL/well of streptavidin-HRP (R&D systems) diluted 1:200 in PBS containing 1% BSA and 0.05% Tween20. The plate was again washed 4-times with 300 μL of PBS containing 0.05% Tween20 before incubating at ambient temperature for 20 or 30 min with 50 or 100 μL/well of 3,3′,5,5′-tetramethylbenzidine (TMB) enzyme substrate (BD Bioscience). Reaction was stopped with a 1.2 M HCl (Sigma) solution. Finally, optical densities (O.D.) were read at 450 nm absorption wavelength using a Tecan Infinite plate reader.

The target of assay [3] is T3, bovine serum albumin (bovine, UniProt P02769 25-607).
T3 construct: Negative control antigen; also called BSA
Nature of the assay: indirect ELISA, plate coated with BSA, antibody titrated, anti-mouse IgG-HRP, O.D. 450 nm.
Protocol: (§2) Antibody target binding was evaluated by an enzyme-linked immunosorbent assay (ELISA). Briefly, Nunc MaxiSorp 96-well plates (Nunc) were coated for 18 h at 4° C. with 50 μL of 10 pg/mL Abeta1-42 or bovine serum albumin (BSA, Sigma) diluted in PBS. In selected assays, the full-length sAPPalpha fragment (Sigma) was additionally included by coating wells as described above, but at 4 pg/mL (0.04 μM). Plates were then washed 4-times with 300 μL of PBS containing 0.05% Tween20 (Millipore). To block non-specific binding to the plate, freshly prepared solution of PBS containing 0.05% Tween20 and 1% BSA, was added to each well (100 μL/well) and the plates were incubated for 1 h at 37° C. Primary antibodies were diluted to 100 nM in PBS containing 1% BSA and 0.05% Tween20, followed by 3-fold serial dilutions in duplicates. Solutions were added to plates at 50 μL/well and incubated for 1 h at 37° C. Subsequently, the plates were washed 4-times with 300 μL of PBS containing 0.05% Tween20. Plates were then incubated with horseradish peroxidase (HRP) conjugated goat anti-mouse secondary IgG (Abcam) for 1 h at 37° C. […] Finally, optical densities (O.D.) were read at 450 nm absorption wavelength using a Tecan Infinite plate reader. Measured values are expressed as mean O.D. from a duplicate run ±1 standard deviation of the mean (S.D.).

Assay [4] addresses T2, Human Abeta1-42 biotinylated at the …. Briefly: capture ELISA: antibody held on anti-mouse IgG Fc-coated plate, C-terminally biotinylated Abeta1-42 titrated in solution, streptavidin-HRP, O.D. 450 nm.
Protocol: as §1
The target of assay [5] is T1, Abeta1-42. Nature of the assay: indirect ELISA, Abeta1-42 coated, antibody titrated.
Protocol: (§3) Antibody target binding was evaluated by an enzyme-linked immunosorbent assay (ELISA). Briefly, Nunc MaxiSorp 96-well plates (Nunc) were coated for 18 h at 4° C. with 50 μL of 10 pg/mL Abeta1-42 or bovine serum albumin (BSA, Sigma) diluted in PBS. In selected assays, the full-length sAPPalpha fragment (Sigma) was additionally included by coating wells as described above, but at 4 pg/mL (0.04 μM). Plates were then washed 4-times with 300 μL of PBS containing 0.05% Tween20 (Millipore). To block non-specific binding to the plate, freshly prepared solution of PBS containing 0.05% Tween20 and 1% BSA, was added to each well (100 μL/well) and the plates were incubated for 1 h at 37° C. Primary antibodies were diluted to 100 nM in PBS containing 1% BSA and 0.05% Tween20, followed by 3-fold serial dilutions in duplicates. Solutions were added to plates at 50 μL/well and incubated for 1 h at 37° C. Subsequently, the plates were washed 4-times with 300 μL of PBS containing 0.05% Tween20. Plates were then incubated with horseradish peroxidase (HRP) conjugated goat anti-mouse secondary IgG (Abcam) for 1 h at 37° C. After final wash step (4-times with 300 μL of PBS containing 0.05% Tween20), plates were incubated with 3,3′,5,5′-tetramethylbenzidine (TMB) substrate (BD Biosciences) and reaction stopped with a Stop Solution (Sigma). Finally, optical densities (O.D.) were read at 450 nm absorption wavelength using a Tecan Infinite plate reader. Measured values are expressed as mean O.D. from a duplicate run ±1 standard deviation of the mean (S.D.).
For assay [6], the target named is T1, Abeta1-42. Nature of the assay: indirect ELISA, plate coated with Abeta1-42, antibody titrated, anti-mouse IgG-HRP, O.D. 450 nm.
Protocol: as §2
The target of assay [7] is T2, Human Abeta1-42 biotinylated at the …. Briefly: capture ELISA: antibody held on anti-mouse IgG Fc-coated plate, C-terminally biotinylated Abeta1-42 titrated in solution, streptavidin-HRP, O.D. 450 nm. The source holds these as a separate data set.
Protocol: as §1
Assay [8] has as its target T4, full-length sAPPalpha fragment (UniProt P05067-4 18-612, limits assumed).
T4 construct: domain: sAPPalpha; Bought protein; also called soluble APP alpha; soluble amyloid precursor protein alpha
Briefly: indirect ELISA, sAPPalpha coated.
Protocol: as §3

For assay [9], the target named is T2, Human Abeta1-42 biotinylated at the …. Nature of the assay: capture ELISA: antibody held on anti-mouse IgG Fc-coated plate, C-terminally biotinylated Abeta1-42 titrated in solution, streptavidin-HRP, O.D. 450 nm. This is another data set of the same source.
Protocol: as §1
Assay [10] shares this target. The assay is described as above. This is another data set of the same source.
Protocol: as §1
For assay [11] the target is unchanged. Nature of the assay: target capture ELISA.
Protocol: as §1
The target of assay [12] is T3, bovine serum albumin. Nature of the assay: indirect ELISA, plate coated with BSA, antibody titrated, anti-mouse IgG-HRP, O.D. 450 nm. The source holds these as a separate data set.
Protocol: as §2
In assay [13] the target is T1, Abeta1-42. Briefly: indirect ELISA, plate coated with Abeta1-42, antibody titrated, anti-mouse IgG-HRP, O.D. 450 nm. The source holds these as a separate data set.
Protocol: as §2

T4 sequence (P05067 other isoform, or with tags, fused parts or gaps limits assumed): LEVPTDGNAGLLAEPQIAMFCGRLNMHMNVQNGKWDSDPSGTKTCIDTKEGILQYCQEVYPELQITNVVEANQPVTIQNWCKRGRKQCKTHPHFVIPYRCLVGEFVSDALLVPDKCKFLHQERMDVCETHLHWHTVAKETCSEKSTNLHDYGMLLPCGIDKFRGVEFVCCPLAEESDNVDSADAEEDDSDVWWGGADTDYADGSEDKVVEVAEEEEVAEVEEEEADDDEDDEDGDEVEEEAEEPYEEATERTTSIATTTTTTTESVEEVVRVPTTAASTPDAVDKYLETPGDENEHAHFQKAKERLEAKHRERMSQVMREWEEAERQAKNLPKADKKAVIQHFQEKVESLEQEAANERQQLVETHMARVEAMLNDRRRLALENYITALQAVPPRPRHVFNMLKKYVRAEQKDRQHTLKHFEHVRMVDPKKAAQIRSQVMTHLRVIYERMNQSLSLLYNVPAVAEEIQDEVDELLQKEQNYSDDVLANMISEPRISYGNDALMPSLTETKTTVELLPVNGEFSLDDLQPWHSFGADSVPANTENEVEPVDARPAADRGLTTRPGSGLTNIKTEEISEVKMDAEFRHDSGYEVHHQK

B1: ACI-31-25B1-Ab2 (murine IgG2a with a lambda light chain) (antibody, V domains shown)
VH: EVQLVESGGDLVKPGGSLKLSCAASRFTFSTYGMSWVRQTPDKRLEWVATISSGRSYTYYADSVKGRFTISRDNAKNTLYLQMSSLKSEDTAMYYCARNSNNQRDYYAMDYWGQGTSVTVSS
VL: QLVLTQSSSASFSLGASAKLTCTLSSQHITYTIEWYQQQPLKPPKYVMVLEKDGSHSTGDGIPDRFSGSSSGADRYLSISNIQPEDEAVYICGVGDAIKEQFVYVFGGGTKVTVLG
notes: also called AC-31-25B1-Ab2
Regarding B1, the entries for the “EC50 (read off the curve)” value in [1], in [4] and in assay [6] were around 9 nM, around 0.4 nM and around 0.04 nM, respectively. For the same molecule, the Kd is 0.312 nM in [2] and 0.041 nM in assay [5]. The binding result in assay [3] is “no binding (tested: 100 nM)”.

B2: ACI-8041-1F11B5-Ab1 (antibody, mouse IgG2a, kappa, V domains shown)
VH: QVQLKESGPGLVAPSQSLSITCTVSGFSLTNYGVSWIRQPPGKGLEWLGVIWGDGSTNYHSALISRLSISKDNSKSQVFLKLNSLQTDDTATYYCTKGAGSWGQGIPVTVSA
VL: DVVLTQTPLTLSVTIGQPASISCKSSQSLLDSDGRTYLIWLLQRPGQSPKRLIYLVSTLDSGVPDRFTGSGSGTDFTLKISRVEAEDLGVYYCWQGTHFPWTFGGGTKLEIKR
notes: Murine IgG2a/kappa; also called ACI-8041-1F111B5-Ab1; ACI-8041- F1B5-Ab1
Regarding B2, the Kd in assay [2] worked out at 0.343 nM. Moreover, the “EC50 (read off the curve)” value in assay [7] was around 0.3 nM. Further, the binding result in [8] is listed as “no binding”.

B3: ACI-8041-9D7E1-Ab1 (antibody, mouse IgG2a, kappa, V domains shown)
VH: EVMLVESGGGLVKPGGSLKLSCAASGFTFSSYAMSWVRQTPEKRLEWVATISSGGNYTYCPDSVKGRFTISRDNAKNTLYLQMSSLRSEDTAMYYCAAYAYDDGYYFDYWGQGTTLTVSS
VL: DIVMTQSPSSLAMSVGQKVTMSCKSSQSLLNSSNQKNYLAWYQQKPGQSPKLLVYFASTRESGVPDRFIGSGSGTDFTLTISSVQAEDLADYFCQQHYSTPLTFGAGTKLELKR
notes: Murine IgG2a/kappa
B3 showed a Kd in assay [2] of 1.1 nM. Further, the “EC50 (read off the curve)” value in assay [9] is around 1 nM. The binding result in assay [8] is given as “no binding”.

B4: ACI-8041-10H3B11-Ab1 (antibody, mouse IgG2a, kappa, V domains shown)
VH: B3 VH
VL: DIQMTQSPSSLSASLGGKVTITCKASQDINKYIAWYQHKPGKGPRLLIHYTSTLQPGIPSRFSGSGSGRDYSFSISNLGPEDIATYYCLQYDNLLTFGGGTKLEIKR
notes: Murine IgG2a/kappa; Same VH as ACI-8041-9D7E1-Ab1; also called ACI-8041-11B3B11-Ab1; AC-8041-13B11-Ab
B4: the Kd in assay [2] was 2.6 nM. Further, the binding result in assay [8] was “no binding”. Also, in [10], the “EC50 (read off the curve)” value was around 2 nM.

B5: ACI-8039-307F7-Ab2 (antibody, mouse IgG2a, kappa, V domains shown)
VH: QVQLQQPGAELVRPGGSVKLSCKASGYSFTNYWMNWVKQRPGQGLEWIGMIHPSDSETRLNQKFKDKATLTVDKSSSTAYLQLSSPTSEDSAVYYCAKLLLYYFDYWGQGTTLTVSS
VL: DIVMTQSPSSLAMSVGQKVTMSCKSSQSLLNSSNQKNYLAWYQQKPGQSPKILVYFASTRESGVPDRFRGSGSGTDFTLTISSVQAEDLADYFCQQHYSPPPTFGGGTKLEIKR
notes: Murine IgG2a/kappa; also called AC-8039-307F7-Ab2
Turning to B5, the binding result is recorded as “binds” in [11] and “no binding” in [8].

B6: ACI-8041-5A6H9-Ab1 (antibody, mouse IgG2a, kappa, V domains shown)
VH: DVQLQESGPGLVKPSQSLSLTCTVTGYSITSDYAWNWIRQFPGNKLEWMGYIDYSGITSYNPSLKSRISITRDTSKNQFFLQLNSVTTEDSATYYCARISGLDYDVRAGWFASWGQGTLVTVSA
VL: DIVMTQAAFSNPVTLGTSVSISCRSSKSLLHSNGITYLYWYLQKPGQSPQLLIYQMSNLASGVPDRFSSSGSGTDFTLRISRVEAEDVGVYYCAQNLERPLTFGAGTKLELKR
notes: Murine IgG2a/kappa; also called ACI-8041-5A61H9-Ab1; AC-8041-5A619-Ab1
Regarding B6, the binding result in assay [11] is “binds”; in [8], “no binding”.

B7: ACI-24-41F12-Ab3 (IgG2a isotype) (antibody, V domains shown)
VH: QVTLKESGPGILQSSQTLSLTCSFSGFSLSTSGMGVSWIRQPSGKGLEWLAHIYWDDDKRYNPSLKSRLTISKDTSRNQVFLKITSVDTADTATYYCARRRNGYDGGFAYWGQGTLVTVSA
VL: DVLMTQTPLSLPVSLGDQASISCRSSQSIVHSNGNTYLEWYLQKPGQSPKLLIYKVSNRFSGVPDRFSGSGSGTDFTLKISRVEAEDLGVYYCFQGSHVPLTFGAGTKLELKR
notes: Recombinant murine IgG2a/kappa with the same VH/VL as ACI-24-41F12-Ab2; Biotinylated when used as detection antibody in the sandwich ELISA; also called ACI-24-41F12-Ab3-rec1
With B7, the figures for the binding result in assay [12] and in [11] were “no binding (tested: 100 nM)” and “binds”, respectively. The same molecule displayed a dissociation constant (Kd) in [5] of 0.066 nM. Further, the 50% effective concentration (EC50 (read off the curve)) in assay [13] was around 0.07 nM.

B8: ACI-8039-306H5-Ab1 (antibody, mouse IgG2a, kappa, V domains shown)
VH: QVTLKESGPGILKPSQTLSLTCSFSGFSLSTSGMGVGWIRQPSGKGLEWLAHIWWDDDKYYNPSLKSQLTISKDTSRNQIFLKITSVDTADTATYYCVRSLYFDYWGQGTTLTVSS
VL: B7 VL with L3V, I29L, E39H, Y92F, F94S, G96S, S97T
notes: Murine IgG2a/kappa; also called AC-8039-306H5-Ab1
As to B8, the binding result in assay [11] was “binds”; in [8], “no binding”.

B9: ACI-8037-109F4-Ab1 (antibody, mouse IgG2a, kappa, V domains shown)
VH: QVTLKESGPGILQPSQTLSLTCSFSGFSLSTSGMGVSWIRQPSGKGLEWLAHIYWDDDKRYNPSLKSRLTISKDTSRNQVFLKITSVDTADAGTYYCARRPIRTVVDAMDYWGQGTSVTVSL
VL: B7 VL with S28T, K50N
notes: Murine IgG2a/kappa
B9: the binding result in assay [11] was “binds”.

B10: ACI-8037-103H5-Ab2 (antibody, mouse IgG2a, kappa, V domains shown)
VH: QVTLKESGPGILKPSQTLSLTCSFSGFSLSTSGMGVGWIRQPSGKGLEWLAHIWWDDDKYYNPSLKSRLTISKDSSRNQVFLKITSVDTADTATYYCVRRGTRLEDYFDFWGQGTTLTVSS
VL: B7 VL with Q27R, Y54F, L88Q
notes: Murine IgG2a/kappa
Regarding B10, the binding result in assay [11] is “binds”.

B11: ACI-8041-3G11B3-Ab1 (antibody, mouse IgG2a, kappa, V domains shown)
VH: QVQLQQSGAELVKPGASVKLSCKASGYTFINYYIYWVKQRPGQGLEWIGEIIPSNDGTNFNEKFKTKATLTVDKSSSTAYMQLSSLTSEDSAVYYCTATGTVWGQGTLVTVSA
VL: B7 VL with N35I, L101W, A105G, L111I
notes: Murine IgG2a/kappa; also called ACD-8041-3G11B3-Ab1
B11: the results for the binding result in [11] and in assay [8] were “binds” and “no binding”, respectively.

B12: ACI-8041-4G6D2-Ab1 (antibody, mouse IgG2a, kappa, V domains shown)
VH: B11 VH with K13R, I30T, N31S, I34M, D56G, G57D, K65R, T66S
VL: B7 VL with L101W, A105G, L111I
notes: Murine IgG2a/kappa
Turning to B12, the binding result was “binds” in [11] and “no binding” in [8].

B13: ACI-8041-2B9H5-Ab1 (antibody, mouse IgG2a, kappa, V domains shown)
VH: QVQLQQSDAELVKPGASVKISCKVSGYTFTDHPIHWMKQRPDQGLEWIGYFYPRDSSTHYNEKFKGKATLTADKSSSTAYMQLNSLTSEDSAVYFCARSMGYWGQGTSVTVSS
VL: DIKMTQSPSSMYASLGERVTITCKASQDINSYLSWFQQKPGKSPKTLIYRANRLVDGVPSRFSGSGSGQDYSLTISSLDYEDMGIYYCLQYDEFPPTFGAGTKLELKR
notes: Murine IgG2a/kappa; also called AC-8041-2B95-Ab1
For B13, the binding result is on record as “binds” in assay [11] and “no binding” in assay [8].

B14: ACI-8039-309D9-Ab2 (antibody, mouse IgG2a, kappa, V domains shown)
VH: QVQLQQSGPQLVRPGASVKISCKASGNSFTSYWMHWVKQRPGQGLEWIGMIDPSDSETRLNQKFKDKATLTVDKSSSTAYMQLSSPTSEDSAVYYCAGLYFTLDYWGQGTSVTVSS
VL: DILMTQSPSSLTVSAGEKVTMSCKSSQSLLASGNQNNYLAWHQQKPGRSPKILIIWASTRVSGVPDRFIGSGSGTDFTLTINSVQAEDLAVYYCQQSYSAPLTFGAGTKLELKR
notes: Murine IgG2a/kappa; also called AC-8039-309D9-Ab2
On to B14, for which the figures for the binding result in assay [11] and in assay [8] were “binds” and “no binding”, respectively.

B15: ACI-8041-5A2D4-Ab1 (antibody, mouse IgG2a, kappa, V domains shown)
VH: EVQLQQSGPELVKPGASVKISCKTSGYTFTENTMHWVKQIHGKSLEWIGGINPNNGVTNNNQKFEGKATLTVDKSSSTAYMELRSLTSEDSAVYYCARSDYDALYYSMDCWGQGTSVTVSS
VL: EIVLTQSPTTMAASPGEKITITCSGSSSIISNYLHWYQQKPGFSPKLLIYRTSNLASGVPTRFSGSGSGTSYSLTIGTMEAEDVATYYCQQGSSIPFTFGSGTKLEIKR
notes: Murine IgG2a/kappa
With B15, the results for the binding result in [11] and in assay [8] were “binds” and “no binding”, respectively.

B16: ACI-8041-6C3C4-Ab1 (antibody, mouse IgG2a, kappa, V domains shown)
VH: EVQLQQSGPELVKPGASVNISCKTSGYTFTEYTMHWMKQSHGKSLEWIGGINPNNGVTGYNQKFKGRATLTVDKSSSTAYMELRSLTSEDSAVYYCARSDYDDLYYAMDYWGQGTSVTVSS
VL: B15 VL with G25A, I30S, T61A
notes: Murine IgG2a/kappa; also called ACD-8041-63C4-Ab1
Consider B16, for which the binding result in assay [11] was “binds”; in assay [8], “no binding”.

One may read the EC50 (read off the curve) as the concentration needed to bring the measured effect to its halfway point. A word on the Kd: it is a measure of binding affinity in units of concentration.
